{
  "source": "patent US12077763B2",
  "about": "“RNA-based control of powdery mildew” (Greenlight Biosciences, Inc., priority 2021, dated 2024)",
  "molecules": {"B1": {"name": "GS1823: dsRNA trigger SEQ ID NO 158; gene target Guanine nucleotide-binding protein subunit beta-like protein (nucleic acid)", "DNA": "TAGCCAGTATCTGTTAGGCGAAAAAACAAGCGCATGGATCAAATCACCAGCATTGAGAGAATATAAATGCTTAGACTCATTTAGATCCCACAACATAGTAGTCCCATCTTTCCCACCTGATGCGCAGAGAGAACCGTCCGGCGAGATGGTGACAGTATTTATGTAACCATTGTGGCCAATATGGTCAGTCTGTAGTTTACAAGAGGATAATTCCCAGACCTTCACAAGTTTGTCCCAGCTACTGCTGACAATGACTGGATTTTGTGGATTTGGGCTGAATCGTACACAAGATACCCAATCATTATGACCTTTTTCAGTAATGGTGAACTTGCAATCACCTAGAGTATTCCAGAGCTTAATTGTTCGATCACGAGAGCCCGAGACAATTTGCCTGTTGTCAGCGGAAAAAGAAACAGAAAGAACATCATTTGTGTGGCCGACAAATCTCCTTGTTGTGGTTCCTGTTGCAAGCTCCCAGAGTCGGAGAGTTTTATCCCAAGAAGCAGATAGAGCATAAGCACCATCAGAAGAAATTACACAGTCGGAAACTATATGAGAGTGGCCATGAAGTGATCGCTTTGGGTAACCGTAGGAA"}, "B2": {"name": "GS1825: dsRNA trigger SEQ ID NO 141; gene target Serine/threonine-protein kinase cek1 (nucleic acid)", "DNA": "CGACCGATTAATCCCATTCTAGACAAGCCAAAATCTGTCAATTTAAGATGGCCTTTCTGATCAATTAAGAGATTGTCAGGTTTAAGATCTCGATGAACTATCCCTCGACTATGAAGATGTTTGACCCCTAGGATAACCTCACCTAAGTATTTTCTTGCCCAATCCTCTTGAAGACCGCCTAAAGCCTTTATAAGTGACGCACAGTCGCCTCCATTCAAATATTCCATAACCAAGTAGAGATAGTCTTTACTTGAGAATGTCCAGTATAATTTAGCTACAAAGTCACTCTCACCTTGCCACATCATGATTGCACGTTCAGCTTTAACGTTAGTTACCTGATTTTTGGCTACCATATCGGCTTTTTTAAGTACTTTGATTGCATAGTAGTCACCTGTAGATTTTTTCTTGGCAAGATAAACACTTCCGAATGCACCTTTACTGATAGGTTTTATTATTTCAAAGTCTTTTATGGAGGGTGGAACAATACGGGCTTGGGGAACACCGACAGTTGATAAACGAGGTGATGGAGGTAGTCGAGATGGGTCAGAGCCTGCAGCAGAAGATTGACGTCTATGGTGATGAGGTAGAAGAGCA"}, "B3": {"name": "GS1820: dsRNA trigger SEQ ID NO 164; gene target Mitochondrial carrier protein LEU5 (nucleic acid)", "DNA": "TTTTTTACAGCCTCTTTGGGAAATCTTATGGATTGAGGCGAAGGCGGAACTTCATTATATATGATTTTGCAAATGTGTGAAAAGCTTGAGCTCGCACCTTTCTTTGTTTCAAAAGCTAGCCGAACCCTTATGACTTCTAAGGGATATGTGAAGAAAACACTAGCGACGCCTGCTAAACTGCCACTTAACAATCTTCGTAATGATGTTTCTTGCGTAGGTGATGATATAAGAAATGATCGTATTTGCTCGTAGGTTAAAAACTTGATCGCAGCATAAGGAAATATCCGAATTATAGTGGCAGAATGGCCACGAAATAGACCACTAATTCCATCAGTAGCTTTGATTTGCCGTATAGCAGTCACAACGCCGAGCCAGCTCCCAGCGTATCTGGAAAATTGTGGATTAGAAGATTGGAATAATATCTTCACACGATCTAAAGGTGCCACTATAGTTTTTGCCGCACTCCCTGCTAGTCCTCCAGCTAATCCTGACCGCCATATGAATCCCAAAGATTGCTTTTCATGAGTTTGGGATTTTGATGAATCTTTTTTATTTTTCGTAGAAGGGTATACTGCAATATTACTTTCATATAAAT"}, "B4": {"name": "GS1821: dsRNA trigger SEQ ID NO 131; gene target ABC transporter ATP-binding protein ARB1 (nucleic acid)", "DNA": "AACACCATTAGGCCCTACCAAAGCTGTTCGAGAGTCCATATCAACACCTAGATCCAAATGTCTGTATAAATCATCTTTAGGATCACCAGAGTATGAAAAAGTAACATCGTCAAATGATAACACTGGTGGAGGAAGTTTTTCCACGTCTGCAAATCTGAAAGTAAAGATACGGTCAGGCTCAACTTTTTGAATGAAGCCATCTGCTTCCATCTTGTCTAGTATTTTTTGTCGTGATTTAGCCTGTCTGACTAAGTTGGCATAAGTACCAGCAGATGCAATAAATTTTTTGATATGAGCGATTTCGTCTTGTTGCTTGTGATAAGCTTTCATTTGGTTGACTTCTAACTCAGAGCGGGTCTTTTGGTATGTATCATAATTTCCACCATAATATGTAAGTTGTTTTTGCCGCATATCAATCATATTGGTGCAGACTCCATTTAGAAAGTCCATTGAATGAGACACTAATACAAGACTTCGATCCCACTTCTTAAGATATTCTTCAAGCCACACACAAGCTTCCAAGTCTAAGTGCGCAGTCGGATCATCAAGTAGAAGTAAAGATGGCTTAACAAAAAGGGCTTTTGCTAAAGCTACA"}, "B5": {"name": "GS1822: dsRNA trigger SEQ ID NO 206; gene target Putative phospholipid-transporting ATPase C6C3.06c (nucleic acid)", "DNA": "TCTCTTCGCGACCGATATCCATTTCCTGAGGGTAACAGAGAATGATCTTCAGCACTGTCTGGGTTGTATCTGCCAGTTCCCTCAACATCTGGGTCGTCCCTCAATAAGCTATGTAAGTCCTCTTCAGCGTAGTCTAAATTCCTTGGGGCCCCATTTCTTCTTCCTAACCCTCTGAATCCGCTCATGCGTAGATTTCTCAACGGAATATTGCTTTCAGTTCTCCAGTCATGCGCTTTCGGTTTGATCCCTTGTTCAAGCTCCTGGATATCTAAATCCAGATCGGAGTCCGAATCAGCTTGAGGTGGAATTTGATCGCCCTGATGATAATATGAGCCCGAAGACATGCCTCATTGTATTTTATCGTTTGATCTCTATAATCTCCTAGGTGATGTTATAAAGCTTGACCGCATAAAATCGGTTAATCATTTAAGCAAATGCAGTTGCGGTGTGTCATATCTTTCACGGCAGCATCTAGTATGTCTAGTATGGCTGCTACTGTATTTTAAATAAACCAAAACATGTTCAACACATTTCATAAGGTATAAGAAGGATTGTGAATATAATTTACTGGTAAATTTTAAATCATAGTTGAAAA"}, "B6": {"name": "GS1827: dsRNA trigger SEQ ID NO 195; gene target Ubiquitin-like modifier-activating enzyme 1 (nucleic acid)", "DNA": "AAAGTTATCGCCGAAGTCGCAGAATATATATCCAAATAATCCAAAGGTTTCAGTTATTACTACATATATTCCCTTCTCATGTAGATACTGGGAGATTATGAGCTGGTCTTTCAGTGGAATATCTGTCAATATTACAGCTTGATATGAATCAAACTGGGAGAGATCAGAAACTAAGCTTGTGGAGCTGTGAATCTTAACAGGGGTGTAAGCATTTAGTTCCGAAACTCGTTGAGCTGAGACAATATCTCTAGGTTTTCCTATATCTTCTGGGTTAAGAAAGAATTGAGATGATAGGTCAGCGATAGTTGCGGGAGCGGGATCGTATAATGTTAGACTTTTAACTCCAGCCAGAGCTATATTCTTAGCTATTTCGATACCAAGACCTTTCAAGCCAATAATAAGAATATTCGATGCACTCATTCGTTTCATAGCCTCGTGTCCAAGAACGTAGAGTTGCCTACTGTATAAAGACTCATCGATAACATTATTATTTTCTTGTGACTCATCAACTTCCATCTTCATCTTGTCTTCAATTTTACTGACTTCACTCATCTTGAATACTTCCTGTAAATCCAATTTACATCAACTGAATTA"}, "B7": {"name": "GS1826: dsRNA trigger SEQ ID NO 180; gene target Adenosylhomocysteinase (nucleic acid)", "DNA": "CGCGAGTAAGATTATATGACGACCATTCTTCATTAGAAAACGATCGACTTGGGGCTTAATATTTTGAACGCTTTGTGCATTAGCTTTAAGCCATGCGACATCTATTTCAATGTCAAAGTGTCCAATATTGCAAACAATAGCATCGTTAGGCATAACTTCAAAATGTTTTCCTACTAAAATGTCACGGCATCCTGTAGTAGTTACGAAGATCTGAGCTTGACTTGCGGCCTTTTCCATTGTGGTGACTTGGAAGCCAGAAACTGCAGCTTGTAAAGCATTTATAGGGTCAACCTCAGTAATTAGTACACGTGCACCCATACCCTGAAGAGCTAATGCACACCCTTTTCCAACATCACCAAAACCAGCAACAACGGCAATTTTTCCAGCAATCATAACATCGGTGGCTCGTTTAATACCATCGATCAAAGACTCGCGGCAGCCATAGAGATTGTCAAACTTAGACTTTGTGACAGAATCATTGACGTTAACCGCAGGCACGAGCAAAGTATTGTTTTTTAACATTTTATATAAATGGTGAACTCCAGTAGTGGTTTCCTCAGATACACCAAAGCAACCTTTTAACATTTCTGGATA"}, "B8": {"name": "GS1824: dsRNA trigger SEQ ID NO 200; gene target WD repeat domain-containing protein 83 (nucleic acid)", "DNA": "CTTGCCATCTCTTCCAACCTTTCTCTTACCATCAAACTTTGTTCCTTTTACTGTGATCCTCTCGACAAGTTTTCCGCTCAATGTATCCCAGACAACCACTTCACCATCTTGTCCTTCAATATTCTCGTTTCCAGAAAGTATCCATCTCTCTCTTCCACCAAAACAGTTCCATATTCGAAATTCTTTGTTTTCCCAGCAATCTGCACGATAACTCCTTAGTAATTTACCATTCTCGGTATCCATTAGTCTAAGCTGACTATCCAGTCCACCTACAAGTAGACCTTTTTTATCTATTGTCTTCCTTAGACATGTCACAGGAGCACCAATAACATCGACAACAATTTGTCCCATTCTAATGTCGTATTTCCTAACTTTTCCATCGACACTACTGGTCCATATCTCGCTATCACTCGCTAATACGCAGCTCACACTATCACCAGCCTCTGTTAGAACCATAACTGGCTTAGCACTCGAGCTCTTCACATCCCAGATACGAGCACTGGCATCAAAACCTCCACTAATAAGAAGACTGGCTCCATCCCCAGCAAAAGTAACGGTATTGATGCGTGCCGAATGACCATTGTTGCCACTAAAT"}},
  "tested_on": "E. necator",
  "experiment": "Leaf disc assay, dry inoculum (settling tower), decrease in disease severity / hyphal growth (Example 2)",
  "details": "decrease in disease severity (hyphal growth) relative to untreated control, value ± SE; for % decrease =/− SE TP1: time point 1 (untreated control hyphal growth ≥50%); for % decrease =/− SE TP2: time point 2",
  "data": [
    {"molecule": "B1", "values": [
      {"measurement": "% decrease =/− SE TP1", "result": "31 ± 8", "unit": "%"},
      {"measurement": "% decrease =/− SE TP2", "result": "26 ± 8", "unit": "%"}
    ]},
    {"molecule": "B2", "values": [
      {"measurement": "% decrease =/− SE TP1", "result": "28 ± 5", "unit": "%"},
      {"measurement": "% decrease =/− SE TP2", "result": "18 ± 6", "unit": "%"}
    ]},
    {"molecule": "B3", "values": [
      {"measurement": "% decrease =/− SE TP1", "result": "23 ± 4", "unit": "%"},
      {"measurement": "% decrease =/− SE TP2", "result": "10 ± 6", "unit": "%"}
    ]},
    {"molecule": "B4", "values": [
      {"measurement": "% decrease =/− SE TP1", "result": "29 ± 5", "unit": "%"},
      {"measurement": "% decrease =/− SE TP2", "result": "19 ± 6", "unit": "%"}
    ]},
    {"molecule": "B5", "values": [
      {"measurement": "% decrease =/− SE TP1", "result": "23 ± 5", "unit": "%"},
      {"measurement": "% decrease =/− SE TP2", "result": "16 ± 4", "unit": "%"}
    ]},
    {"molecule": "B6", "values": [
      {"measurement": "% decrease =/− SE TP1", "result": "45 ± 2", "unit": "%"},
      {"measurement": "% decrease =/− SE TP2", "result": "40 ± 4", "unit": "%"}
    ]},
    {"molecule": "B7", "values": [
      {"measurement": "% decrease =/− SE TP1", "result": "19 ± 6", "unit": "%"},
      {"measurement": "% decrease =/− SE TP2", "result": "6 ± 5", "unit": "%"}
    ]},
    {"molecule": "B8", "values": [
      {"measurement": "% decrease =/− SE TP1", "result": "26 ± 7", "unit": "%"},
      {"measurement": "% decrease =/− SE TP2", "result": "19.5 ± 8", "unit": "%"}
    ]}
  ]
}
